Data: patent US20220259296A1 (Boehringer Ingelheim, published 2022)

B1: M0123 (antibody, V domains shown)
VH: QSVKESEGRLVTPGTPLTLTCTASGFTIGSYHMSWVRQAPGKGLEWIGIIYTDGNTDYANWAKGRFTISKTSTTMDLKMTSLTAADTATYFCARRGYADYGYTFNLWGQGTLVTISS
VL: ELVLTQPASVQVNLGQTVSLTCTADTLSRNYASWYQQKPGQAPVLLIYRDTSRPSGVPDRFSGSSSGNTATLTISGAQAGDEADYYCATGDGSGSSYQFVFGGGTQLTVTG
notes: Wild-type rabbit VH/VL from a rabbit scFv phage library; A separate 'scFv-derivative of M0123 (26 kDa)' was used only in the Bruch's membrane diffusion test; also called anti-C3 antibody M0123
B2: M0124 (antibody, V domains shown)
VH: QSVKESGGRLVTPGTPLTLTCTVSGIDLSRYWMNWVRQAPGKGLEWIGYITTNDKTYYANWAKGRYTISKTSSTTVDLKMTSLTTEDTATYFCARRSSGAYDIWGPGTLVTISS
VL: QPVLTQSPSASATLGASAKLTCTLSSAHKTYYIEWYQQQQGEAPRYLMQLKSDGTYTKGTGVPDRFSGSSSGADRYLIISSVQAEDEADYICGVTGGNVYVFGGGTQLTVTG
notes: Wild-type rabbit VH/VL from a rabbit scFv phage library; ELISA detection used an anti-human Kappa HRP or an anti-His Tag HRP antibody; also called anti-C3 antibody M0124
B3: M0251 (VHH)
VHH: EVQLVESGGGLVQAGGSLRLSCVASGHTFGNWAMGWFRQAPGKEREFVGAIRWSVGTTNYRDSVKGRFAISRDNARNTVYLQMNRLKPEDTAVYYCAAGTPFVLARINGYDYWGQGTQVTVSS
notes: Wild-type llama VHH domain; also called anti-C3 antibody M0251
B4: M0228 (VHH)
VHH: EVQLVESGGGLVQAGGSLRLSCAASGRTINDYTMGWFRQAPGKDREFVSAINWRGSSTYYADSVKGRFTISRDNAKKTIYLQMNLLKPEDTAVYYCARQVSPYVELTATAAYWGQGTQVTVSS
notes: Wild-type llama VHH domain; also called anti-C3 antibody M0228
B5: M0122 (antibody, V domains shown)
VH: QSVKESGGRLVTPGTPLTLTCTVSGFSLYNYAMNWVRQAPGKGLEWIGIINTDGNTNYASWAKGRFTISTTSSTTVDLKITSPTTEDTATYFCPRAVGYHHHALDPWGPGTLVTVSS
VL: ELVLTQSPSVSAALGASAKLTCTLSSAHKTYTIDWYQQQQGEAPRYLMQLKSDGSYTKGTGVPDRFSGSSSGADRYLIIPSVQADDEADYYCGTDYGGGYVFGGGTQLTVTG
notes: Wild-type rabbit VH/VL from a rabbit scFv phage library; ELISA detection used an anti-human Kappa HRP or an anti-His Tag HRP antibody; also called anti-C3 antibody M0122

Experiments:
[1] = target: T1, human complement C3 (human, UniProt P01024 23-1663); experiment: cell-based or functional assay
T1 sequence (P01024 23-1663): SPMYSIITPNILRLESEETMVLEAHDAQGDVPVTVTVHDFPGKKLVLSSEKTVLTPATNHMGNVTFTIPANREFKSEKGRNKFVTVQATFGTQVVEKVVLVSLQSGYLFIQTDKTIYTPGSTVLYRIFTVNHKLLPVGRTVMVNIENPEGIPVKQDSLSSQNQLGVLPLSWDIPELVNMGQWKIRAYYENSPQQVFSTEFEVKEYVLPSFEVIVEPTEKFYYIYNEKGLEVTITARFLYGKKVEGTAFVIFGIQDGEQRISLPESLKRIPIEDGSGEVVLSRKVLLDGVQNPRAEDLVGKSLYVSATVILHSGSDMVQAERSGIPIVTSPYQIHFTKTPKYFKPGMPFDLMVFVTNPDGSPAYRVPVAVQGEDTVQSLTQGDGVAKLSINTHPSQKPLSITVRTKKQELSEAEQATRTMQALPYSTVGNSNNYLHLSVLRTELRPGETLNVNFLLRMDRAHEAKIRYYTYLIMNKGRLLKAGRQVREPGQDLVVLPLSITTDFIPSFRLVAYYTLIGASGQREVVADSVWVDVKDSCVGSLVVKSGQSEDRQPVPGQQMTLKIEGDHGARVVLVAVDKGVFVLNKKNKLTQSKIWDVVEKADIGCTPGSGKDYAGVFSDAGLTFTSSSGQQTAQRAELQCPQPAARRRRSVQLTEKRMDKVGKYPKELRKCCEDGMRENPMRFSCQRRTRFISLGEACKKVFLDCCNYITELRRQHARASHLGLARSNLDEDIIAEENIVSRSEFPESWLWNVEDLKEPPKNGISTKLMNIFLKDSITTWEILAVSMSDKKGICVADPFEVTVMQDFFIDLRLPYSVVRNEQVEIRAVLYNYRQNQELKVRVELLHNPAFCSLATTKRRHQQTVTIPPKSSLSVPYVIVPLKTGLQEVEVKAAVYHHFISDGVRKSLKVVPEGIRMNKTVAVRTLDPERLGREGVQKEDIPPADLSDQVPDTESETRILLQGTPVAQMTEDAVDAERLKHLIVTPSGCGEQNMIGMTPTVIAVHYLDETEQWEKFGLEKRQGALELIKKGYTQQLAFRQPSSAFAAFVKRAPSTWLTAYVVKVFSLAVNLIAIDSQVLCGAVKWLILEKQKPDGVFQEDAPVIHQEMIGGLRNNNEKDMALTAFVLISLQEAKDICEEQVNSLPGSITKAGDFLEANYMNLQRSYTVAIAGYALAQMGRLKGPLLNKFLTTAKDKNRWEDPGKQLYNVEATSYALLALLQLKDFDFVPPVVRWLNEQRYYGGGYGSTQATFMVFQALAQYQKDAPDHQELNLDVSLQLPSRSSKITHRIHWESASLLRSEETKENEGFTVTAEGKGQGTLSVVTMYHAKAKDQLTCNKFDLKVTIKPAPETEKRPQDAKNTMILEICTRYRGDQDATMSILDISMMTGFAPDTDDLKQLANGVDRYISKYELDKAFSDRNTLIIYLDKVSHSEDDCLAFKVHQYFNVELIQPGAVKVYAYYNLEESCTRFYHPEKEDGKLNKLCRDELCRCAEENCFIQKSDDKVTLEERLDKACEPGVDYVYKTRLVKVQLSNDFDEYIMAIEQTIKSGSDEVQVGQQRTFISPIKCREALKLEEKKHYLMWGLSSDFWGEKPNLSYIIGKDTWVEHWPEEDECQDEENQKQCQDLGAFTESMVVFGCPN

[2] = target: T1, human complement C3; experiment: competition ELISA on human C3; competitor: biotinylated M0123 (panel title 'Competition with M0123')
Protocol: (§1) M0251, M0228, M0122, M0123 and M0124 were tested in a pairwise combinatorial manner to identify those that target the same region (epitope) on C3. Briefly, one antibody was labelled via biotinylation and incubated together with other antibody clones in a C3 binding ELISA. Those anti-C3 antibodies that competed for the same binding region were considered to share similar epitopes and therefore to have similar functions. This information enables to reduce the number of potential antibody candidates while maintaining epitope diversity. Out of the five antibodies inhibiting all three complement pathways, M0251, M0228 and M0123 were considered to share the same epitope on C3 (FIG. 7D). Inhibiting leads were assumed to bind three different epitopes on C3 (FIG. 7A-7D).

[3] = target: T1, human complement C3; experiment: biolayer interferometry, human C3
[4] = target: T2, human complement C3b (human, UniProt P01024 23-667; P01024 749-1663); experiment: direct ELISA, plate coated with purified human C3b
T2 construct: domain: C3b; Cleavage product of C3 (C3 without C3a)
T2 sequence (P01024 23-667 limits assumed, chain 1 of 2): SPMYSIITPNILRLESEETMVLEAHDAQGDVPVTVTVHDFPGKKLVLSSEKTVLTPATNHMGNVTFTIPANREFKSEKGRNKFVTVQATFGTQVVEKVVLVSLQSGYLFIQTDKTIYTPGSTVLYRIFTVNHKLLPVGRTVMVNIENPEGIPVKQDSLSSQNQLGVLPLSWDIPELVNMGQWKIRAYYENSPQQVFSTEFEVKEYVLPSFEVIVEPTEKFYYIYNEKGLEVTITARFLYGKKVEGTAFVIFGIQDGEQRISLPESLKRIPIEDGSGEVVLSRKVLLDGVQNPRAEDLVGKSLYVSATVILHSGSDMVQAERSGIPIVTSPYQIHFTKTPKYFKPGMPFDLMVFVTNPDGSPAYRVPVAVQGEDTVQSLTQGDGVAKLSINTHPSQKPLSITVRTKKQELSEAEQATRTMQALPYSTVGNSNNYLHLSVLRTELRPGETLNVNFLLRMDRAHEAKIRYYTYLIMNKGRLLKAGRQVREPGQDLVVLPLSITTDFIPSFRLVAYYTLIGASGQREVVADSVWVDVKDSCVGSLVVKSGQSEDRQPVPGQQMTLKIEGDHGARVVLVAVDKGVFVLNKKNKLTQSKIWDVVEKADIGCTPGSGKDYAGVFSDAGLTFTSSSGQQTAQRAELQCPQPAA
T2 sequence (P01024 749-1663 limits assumed, chain 2 of 2): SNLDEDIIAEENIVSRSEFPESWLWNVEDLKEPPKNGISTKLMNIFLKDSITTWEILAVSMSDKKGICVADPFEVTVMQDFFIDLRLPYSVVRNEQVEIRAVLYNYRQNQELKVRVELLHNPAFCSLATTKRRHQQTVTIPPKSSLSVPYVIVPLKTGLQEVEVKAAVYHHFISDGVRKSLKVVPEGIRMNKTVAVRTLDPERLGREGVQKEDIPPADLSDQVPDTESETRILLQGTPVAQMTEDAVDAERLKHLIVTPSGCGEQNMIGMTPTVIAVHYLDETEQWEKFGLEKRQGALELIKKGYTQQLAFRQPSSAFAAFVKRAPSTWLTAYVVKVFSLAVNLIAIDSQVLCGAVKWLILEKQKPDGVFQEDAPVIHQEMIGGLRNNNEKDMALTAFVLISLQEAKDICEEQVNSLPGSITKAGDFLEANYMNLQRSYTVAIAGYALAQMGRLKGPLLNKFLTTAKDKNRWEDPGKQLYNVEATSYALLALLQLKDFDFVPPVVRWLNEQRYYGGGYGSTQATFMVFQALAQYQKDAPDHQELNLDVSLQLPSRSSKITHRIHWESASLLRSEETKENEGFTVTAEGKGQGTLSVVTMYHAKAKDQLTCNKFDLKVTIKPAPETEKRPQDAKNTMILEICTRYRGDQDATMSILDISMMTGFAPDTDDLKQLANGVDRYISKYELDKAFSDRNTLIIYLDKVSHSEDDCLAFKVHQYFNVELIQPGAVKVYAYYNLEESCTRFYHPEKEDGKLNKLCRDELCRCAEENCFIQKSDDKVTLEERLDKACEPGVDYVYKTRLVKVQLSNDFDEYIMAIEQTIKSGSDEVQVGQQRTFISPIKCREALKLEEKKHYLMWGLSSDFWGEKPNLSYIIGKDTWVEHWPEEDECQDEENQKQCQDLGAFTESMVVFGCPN
Protocol: (§2) M0122, M0124 and M0228 were evaluated for their ability to bind both human C3 and C3b in a direct binding ELISA assay (FIG. 8A and FIG. 8B). Briefly, 96 well ELISA plates were coated with purified native human C3 or C3b (Complement Technology, A113 and A114). Serial dilutions of antibody molecules were added to the plate and detected by a rabbit anti-human Kappa HRP antibody (Abcam, ab202549) or a rabbit anti-His Tag HRP antibody (Abcam, ab1187). M0122, M0124 and M0228 show high affinity binding to both human C3 and C3b.

[5] = target: T1, human complement C3; experiment: direct ELISA, plate coated with purified native human C3
Protocol: as §2

[6] = target: T3, cynomolgus monkey C3 (cynomolgus monkey (Macaca fascicularis)); experiment: ELISA, cyno C3 captured from cynomolgus serum by coated polyclonal goat antiserum
T3 construct: mature; Native protein from serum; also called cyno C3; cynomolgus C3
Protocol: Antibodies identified as capable of inhibiting all three complement pathways were assessed for their ability to bind cynomolgus monkey C3 in ELISA. Briefly, 96 well ELISA plates were coated with polyclonal goat antiserum deemed to be cross-reactive to cyno C3 and followed by a secondary association with a custom preparation of cynomolgus monkey serum (BioIVT, NB-151558). Serial dilutions of the antibody molecules were added to the ELISA plate and antibodies binding to cyno C3 were detected with a rabbit anti-human Kappa HRP antibody (Abcam, ab202549) or a mouse anti-His Tag HRP antibody (R&D Systems, MAB050H). Leads M0122, M0124 and M0251 show binding in a dose response manner to cynomolgus monkey C3.

[7] = target: T1, human complement C3; experiment: competition ELISA on human C3; competitor: biotinylated M0251 (panel title 'Competition with M0251')
Protocol: as §1

[8] = target: T1, human complement C3; experiment: competition ELISA on human C3; competitor: biotinylated M0122 (panel title 'Competition with M0122')
Protocol: as §1

Binder | inhibition of classical, lectin and alternative complement pathways in human serum (Wieslab Complement system Screen, C5b-C9 neoantigen) [1] | IC50 (read off the curve) [2] | Kd [3] | koff [3] | kon [3] | EC50 (read off the curve) [4] | EC50 (read off the curve) [5] | EC50 (read off the curve) [6] | IC50 (read off the curve) [7] | IC50 (read off the curve) [8]
B1 | ≥ 90% | ~9 nM | – | – | – | – | – | – | – | –
B2 | ≥ 90% | – | 0.0124 nM | 5.18e-05 s⁻¹ | 4.16e+06 M⁻¹ s⁻¹ | ~0.04 µg/mL | ~0.07 µg/mL | ~3 nM | – | –
B3 | ≥ 90% | ~20 nM | – | – | – | – | – | ~5 nM | ~4 nM | –
B4 | ≥ 90% | ~2 nM | 0.199 nM | 0.000111 s⁻¹ | 557000 M⁻¹ s⁻¹ | ~0.03 µg/mL | ~0.03 µg/mL | – | – | –
B5 | ≥ 90% | – | 0.0528 nM | 4.7e-06 s⁻¹ | 89000 M⁻¹ s⁻¹ | ~0.04 µg/mL | ~0.03 µg/mL | ~2 nM | – | ~20 nM
